Experiments:
[1] = biological target: Bacillus cereus VD045 GajB (Gabija protein B), untagged, co-expressed with GajA (Bacillus cereus VD045) (UniProt J8HQ06); assay: crystal structure
[2] = biological target: Bacillus phage Phi3T Gabija anti-defense 1 (Gad1) (Bacillus phage Phi3T); assay: cryo-EM structure
[3] = biological target: SUMO2-tagged Bacillus cereus VD045 GajAB complex (Bacillus cereus VD045) (UniProt J8H9C1); assay: cryo-EM structure
SUMO2-tagged Bacillus cereus VD045 GajAB complex (Bacillus cereus VD045), sequence (J8H9C1 2-578, chain 1 of 2): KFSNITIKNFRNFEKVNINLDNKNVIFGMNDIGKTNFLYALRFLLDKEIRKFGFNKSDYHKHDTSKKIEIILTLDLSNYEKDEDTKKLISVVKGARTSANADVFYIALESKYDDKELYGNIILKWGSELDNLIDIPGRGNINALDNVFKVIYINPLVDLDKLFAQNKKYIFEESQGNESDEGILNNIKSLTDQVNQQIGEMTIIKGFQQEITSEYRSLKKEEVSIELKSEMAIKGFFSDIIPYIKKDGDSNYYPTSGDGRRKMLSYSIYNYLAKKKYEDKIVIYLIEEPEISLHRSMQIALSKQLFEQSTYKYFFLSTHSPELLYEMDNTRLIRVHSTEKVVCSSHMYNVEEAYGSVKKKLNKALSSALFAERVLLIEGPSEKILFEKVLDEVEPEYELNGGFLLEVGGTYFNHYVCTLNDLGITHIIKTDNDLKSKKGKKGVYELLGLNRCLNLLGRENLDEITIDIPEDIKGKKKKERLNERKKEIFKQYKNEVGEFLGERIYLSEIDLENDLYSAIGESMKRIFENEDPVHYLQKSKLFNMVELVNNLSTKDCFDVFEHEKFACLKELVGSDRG
SUMO2-tagged Bacillus cereus VD045 GajAB complex (Bacillus cereus VD045), sequence (J8HQ06 2-494, chain 2 of 2, further chain): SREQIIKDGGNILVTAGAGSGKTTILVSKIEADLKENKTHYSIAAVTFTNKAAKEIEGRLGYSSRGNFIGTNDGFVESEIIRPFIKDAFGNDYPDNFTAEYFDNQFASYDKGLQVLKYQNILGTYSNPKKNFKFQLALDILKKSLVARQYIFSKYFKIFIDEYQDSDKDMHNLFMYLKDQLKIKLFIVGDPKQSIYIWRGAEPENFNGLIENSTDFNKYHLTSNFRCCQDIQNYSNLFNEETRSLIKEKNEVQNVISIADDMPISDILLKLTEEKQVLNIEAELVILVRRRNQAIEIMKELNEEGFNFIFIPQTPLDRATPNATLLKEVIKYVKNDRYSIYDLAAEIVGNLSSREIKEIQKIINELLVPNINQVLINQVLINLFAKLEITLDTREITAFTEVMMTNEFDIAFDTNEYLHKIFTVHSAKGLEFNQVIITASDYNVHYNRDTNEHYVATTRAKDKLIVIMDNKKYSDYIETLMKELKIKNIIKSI

Bacillus phage Phi3T Gabija anti-defense 1 (Gad1) (natural protein), sequence (A0A1P8CWZ3 whole entry): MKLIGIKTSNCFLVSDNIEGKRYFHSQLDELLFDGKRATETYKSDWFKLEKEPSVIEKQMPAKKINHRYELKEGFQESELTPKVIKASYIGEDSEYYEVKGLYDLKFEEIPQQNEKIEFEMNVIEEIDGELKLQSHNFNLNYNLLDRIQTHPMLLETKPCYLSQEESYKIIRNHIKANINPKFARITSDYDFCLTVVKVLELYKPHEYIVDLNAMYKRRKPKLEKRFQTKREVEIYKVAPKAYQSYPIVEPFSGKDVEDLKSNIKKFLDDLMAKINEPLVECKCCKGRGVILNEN

| Substance | stoichiometry N [1] | stoichiometry N [2] | stoichiometry N (Gad1 per 4:4 GajAB assembly) [3] |
| --- | --- | --- | --- |
| Bacillus cereus VD045 GajB (Gabija protein B), untagged, co-expressed with GajA (from UniProt J8HQ06 2-494) (enzyme) | 2 |  |  |
| Bacillus phage Phi3T Gabija anti-defense 1 (Gad1) (natural protein) |  | 8 | 8 |
